Changes are numbered by the printed parent chain. No end group written: not given here.
T1: human Origin Recognition Complex subunit 1 BAH domain, wild type (human, UniProt Q13415 45-171)
T1 sequence (looked up): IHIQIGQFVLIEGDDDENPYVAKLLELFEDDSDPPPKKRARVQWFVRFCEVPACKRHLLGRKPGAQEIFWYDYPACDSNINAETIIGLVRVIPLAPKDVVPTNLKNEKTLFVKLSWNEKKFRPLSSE

T2: human Origin Recognition Complex subunit 1 BAH domain, R105Q mutant (human, UniProt Q13415 45-171, R105Q)
T2 sequence (looked up): T1 sequence (looked up) with R61Q

T3: hORC1 BAH domain, wild type (human, UniProt Q13415 45-171)
T3 sequence: T1 sequence (looked up)

B1: 14-bp DNA duplex (dsDNA)
DNA 1: GGAGGCCTCCTGCT
DNA 2: AGCAGGAGGCCTCC

Tests used:
[1] = target: T1, human Origin Recognition Complex …; experiment: ITC
[2] = target: T2, human Origin Recognition Complex …; experiment: ITC
[3] = target: T3, hORC1 BAH domain, wild type; experiment: EMSA

Binder	Kd [1] [µM]	Kd [2] [µM]	binding result [3]
GAKRHRCVLRDNY (not fully specified (residue 7)) [histone H4(14–25)Kc20me2 peptide]	8.85	8.33	–
B1	–	–	binds

Source: paper PMC4654454 (ACS chemical biology, 2015)
